Experimental data as given in publication PMC10259489, “Identification of epigenetic modulators as determinants of nuclear size and shape” (eLife, 2023).

T1: GST-lamin A (aa 389–646), entire Ig-fold and C-terminus (human, UniProt P02545 389-646)
T1 construct: pGEX4T1 construct; also called full-length lamin A tail; source: E. coli Rosetta 2, purified (glutathione Sepharose 4B); not shown: GST, N-terminal, kept
T1 sequence (looked up): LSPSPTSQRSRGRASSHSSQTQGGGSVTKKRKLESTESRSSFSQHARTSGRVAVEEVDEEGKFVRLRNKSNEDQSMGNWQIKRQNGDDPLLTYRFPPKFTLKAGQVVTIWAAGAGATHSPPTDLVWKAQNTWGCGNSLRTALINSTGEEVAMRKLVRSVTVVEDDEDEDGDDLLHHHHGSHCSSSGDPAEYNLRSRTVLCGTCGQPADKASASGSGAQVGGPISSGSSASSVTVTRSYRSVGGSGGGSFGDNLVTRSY

T2: histone H3R8me2/K9me2 peptide (R8me2, K9me2)
T2 chain: ARTKQTARKSTGGKAPRKQ

B1: GST-lamin C (aa 389–572), C-terminal region of lamin C (domain or fragment, human, UniProt P02545-2 389-572, looked up)
chain: LSPSPTSQRSRGRASSHSSQTQGGGSVTKKRKLESTESRSSFSQHARTSGRVAVEEVDEEGKFVRLRNKSNEDQSMGNWQIKRQNGDDPLLTYRFPPKFTLKAGQVVTIWAAGAGATHSPPTDLVWKAQNTWGCGNSLRTALINSTGEEVAMRKLVRSVTVVEDDEDEDGDDLLHHHHVSGSRR
notes: pGEX4T1 construct; source: E. coli Rosetta 2, purified (glutathione Sepharose 4B); not shown: GST, N-terminal, kept
B2: GST-lamin A (506–646) (domain or fragment, human, UniProt P02545 506-646, looked up)
chain: HSPPTDLVWKAQNTWGCGNSLRTALINSTGEEVAMRKLVRSVTVVEDDEDEDGDDLLHHHHGSHCSSSGDPAEYNLRSRTVLCGTCGQPADKASASGSGAQVGGPISSGSSASSVTVTRSYRSVGGSGGGSFGDNLVTRSY
notes: detected by anti-GST; also called GST-lamin A (pACS37); source: E. coli Rosetta 2, purified (glutathione Sepharose 4B); not shown: GST, N-terminal, kept

Experiments:
[1] = target: T1, GST-lamin A (aa 389–646), entire …; assay: pull-down; calf thymus histone pull-down with GST-lamin A (wild type or C522A) and GST-lamin C (389–572) co-incubated, with or without DTT; conditions: both partners purified
[2] = target: T2, histone H3R8me2/K9me2 peptide; assay: peptide or protein array; MODified histone peptide array (Active Motif, 384 peptides spotted); 10 nM purified GST-lamin A (pACS37) in 100 mM KCl, 20 mM HEPES pH 7.5, 1 mM EDTA, 0.1 mM DTT, 10% glycerol, room temperature 1 hr; detected with anti-GST and HRP secondary, ECL; conditions: both partners purified

| Binder | binding result [1] | fold signal against H3K9me2 [2] [fold] |
| --- | --- | --- |
| B1 | binds | – |
| B2 | – | ~5 |
